Measurements published in patent US20210292409A1 (Chugai, published 2021).

Key:
[1] = target: T1, human IL6R (Accession no. NP_000556) (human, UniProt P08887 20-468); test: flow cytometry on HeLa/BirA cells transfected with human IL6R; antibody at 1 micro M in the sorting step
T1 construct: whole, on cells; Expressed on Flp-In-CHO cells (IL6R+CHO)
T1 sequence (looked up): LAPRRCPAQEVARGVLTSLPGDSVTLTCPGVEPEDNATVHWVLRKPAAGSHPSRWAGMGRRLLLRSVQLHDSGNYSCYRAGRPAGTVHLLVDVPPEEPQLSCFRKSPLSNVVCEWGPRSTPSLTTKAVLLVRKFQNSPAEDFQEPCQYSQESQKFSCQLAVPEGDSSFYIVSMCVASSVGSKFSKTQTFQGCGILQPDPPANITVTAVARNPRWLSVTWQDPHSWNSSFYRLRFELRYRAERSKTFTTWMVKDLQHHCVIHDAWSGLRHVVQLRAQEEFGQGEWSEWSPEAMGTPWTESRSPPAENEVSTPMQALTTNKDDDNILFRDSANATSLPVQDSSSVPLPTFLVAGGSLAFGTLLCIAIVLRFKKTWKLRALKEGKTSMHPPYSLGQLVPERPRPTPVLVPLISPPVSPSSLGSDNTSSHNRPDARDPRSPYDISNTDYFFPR
Procedure: To select cells stably expressing IL6R, antibiotic resistant cells were incubated with 1 micro M of anti-IL6R antibody PF1H-G4T1K439E.Avi/PF1L-KT0 (heavy chain, PF1H-G4T1K439E.Avi (SEQ ID NO: 66); light chain, PF1L-KT0 (SEQ ID NO: 67) in MACS buffer (Auto MACS Rinsing Solution (Miltenyi Biotec, Cat #130-091-222) and MACS BSA Stock Solution (Miltenyi Biotec, Cat #1130-091-376)) for 30 min on ice. After wash in MACS buffer, cells were further incubated with R-phycoerythrin (PE) labelled anti-kappa antibody (Southern Biotech, Cat #2060-09) for 30 min on ice in MACS buffer. After wash in MACS buffer, cells expressing IL6R were sorted by FACSAria IIu sorter (Becton Dickinson). Selected clones were then expanded. Flow cytometry using anti-IL6R antibody PF1H-G4T1K439E.Avi/PF1L-KT0 and R-phycoerythrin (PE) labelled anti-kappa antibody (Southern Biotech, Cat #2060-09) with FACS Verse (Becton Dickinson) confirmed high expression of IL6R. BirA expression was also confirmed by capillary immunoassay using Simple Western Wes (Protein Simple).

[2] = target: T2, human ASGPR (ASGPR-H1 and ASGPR-H2 subunits) (human, UniProt P07306 2-291; P07307 2-311); test: flow cytometry on HeLa/ASGPR/BirA cells
T2 construct: Plasmids for H1 and H2 transfected in a ratio of 2:1 into HeLa cells; also called Asialoglycoprotein receptor
T2 sequence 1: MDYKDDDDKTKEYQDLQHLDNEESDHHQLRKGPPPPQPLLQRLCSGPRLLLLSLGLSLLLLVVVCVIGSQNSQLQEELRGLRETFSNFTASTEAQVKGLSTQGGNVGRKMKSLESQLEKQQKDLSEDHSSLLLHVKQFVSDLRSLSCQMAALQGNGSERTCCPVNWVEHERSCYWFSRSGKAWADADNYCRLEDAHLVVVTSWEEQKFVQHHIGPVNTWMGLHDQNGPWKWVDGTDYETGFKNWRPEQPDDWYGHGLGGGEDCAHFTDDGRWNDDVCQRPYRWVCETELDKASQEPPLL
T2 sequence 2: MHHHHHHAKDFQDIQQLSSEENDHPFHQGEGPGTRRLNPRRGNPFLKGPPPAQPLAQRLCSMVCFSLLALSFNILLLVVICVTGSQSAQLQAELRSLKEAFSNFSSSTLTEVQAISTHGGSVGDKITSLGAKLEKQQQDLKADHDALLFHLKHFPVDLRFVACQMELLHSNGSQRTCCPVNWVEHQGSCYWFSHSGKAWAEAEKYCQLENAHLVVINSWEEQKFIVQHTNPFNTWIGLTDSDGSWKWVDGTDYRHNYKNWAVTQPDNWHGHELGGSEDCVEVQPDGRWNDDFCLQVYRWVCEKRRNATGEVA

B1: anti-IL6R antibody PF1H-G4T1K439E.Avi/PF1L-KT0 (antibody, human IgG4 S228P, kappa, V domains shown)
VH: QVQLQESGPGLVKPSETLSLTCAVSGYSISDDHAWSWVRQPPGEGLEWIGYISYSGITNYNPSLKGRVTISRDTSKNQFSLKLSSVTAADTAAYYCARVLARITAMDYWGEGTLVTVSS
VL: DIQMTQSPSSLSASVGDSVTITCQASQDISSYLNWYQQKPGKAPELLIYYGSELHSGVPSRFSGSGSGTDFTFTISSLEAEDAATYYCGQGNRLPYTFGQGTKVEIER
[1]
  binding result: binds

B2: anti-ASGPR antibody AGA0008Ha-G4T1K439E.Avi/AGA0008La-kOMC (antibody, human IgG4 S228P, kappa, V domains shown)
VH: QSVEESGGRLVTPGTPLTLTCTVSGFSLSSYAMGWVRQAPGKGLEYIGFINTGGSPYYASWAKGRFTISRTSTTVDLKMTSPTTEDTATYFCARDYDTSSGYYGYFNLWGPGTLVTVSS
VL: AQVLTQTPASVSAAVGGTVTIKCQASENIDSYLAWYQQKPGQPPKLLIYRASTLASGVPSRFKGSGSGTPFTLTISDLECADAATYYCQRYVSLNSGDAFGGGTKVEIKR
[2]
  binding result: binds
